In patent US20120237518A1:

Target: recombinant human Trop-2/Fc/His fusion protein (manufactured by R&D) (human) (UniProt P09758)
Test: SPR (Biacore T100), Trop-2/Fc/His captured by Tetra-His antibody on CM5 chip, antibody as analyte, Bivalent Analyte model, mean of duplicates

Sequence of recombinant human Trop-2/Fc/His fusion protein (manufactured by R&D) (human) (P09758 27-274 limits assumed): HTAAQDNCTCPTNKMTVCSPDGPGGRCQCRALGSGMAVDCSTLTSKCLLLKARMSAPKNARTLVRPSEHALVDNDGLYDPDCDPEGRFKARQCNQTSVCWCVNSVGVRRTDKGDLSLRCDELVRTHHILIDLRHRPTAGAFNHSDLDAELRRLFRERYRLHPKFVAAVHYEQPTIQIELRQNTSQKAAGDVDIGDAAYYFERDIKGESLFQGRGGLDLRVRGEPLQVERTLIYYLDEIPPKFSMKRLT

Kd | koff | kon | Substance
1.1 nM | 0.00061 s⁻¹ | 555000 M⁻¹ s⁻¹ | 77220 (manufactured by R&D), anti-Trop-2 mouse monoclonal antibody
0.929 nM | 0.000184 s⁻¹ | 183000 M⁻¹ s⁻¹ | MOv16 (manufactured by Alexis), anti-Trop-2 mouse monoclonal antibody
